Columns and labels:
cynomolgus serum albumin [1] = molecular target: T1, cynomolgus serum albumin (cynomolgus, UniProt A2V9Z4 25-608); assay: SPR (MASS-1), SA amine-coupled, scFv analyte, pH 7.4
T1 construct: Amine-coupled to the SPR chip; also called cynomolgus SA
Experimental: (§1) Affinity of the humanized scFvs to serum albumin (SA) of the different species was determined by SPR measurements using a MASS-1 device (Sierra Sensors). SA was directly coupled to a high capacity amine sensor chip (Sierra Sensors) using amine coupling chemistry. […] The assay was run twice at different pH values: once in a 1×PBS-Tween buffer at pH 5.5 and another time in a 1×PBS-Tween buffer at pH 7.4.

human serum albumin [2] = molecular target: T2, human serum albumin (human, UniProt P02768 25-609); assay: as above
T2 construct: Amine-coupled to the SPR chip; also called HSA; human SA
Experimental: as §1

cynomolgus serum albumin [3] = molecular target: T1, cynomolgus serum albumin; assay: SPR; upper end tied to cynomolgus SA at pH 5.5 by the KD values of Table 3
Experimental: as §1

mouse serum albumin [4] = molecular target: T3, mouse serum albumin (mouse, UniProt P07724 25-608); assay: SPR, SA coupled to the chip, scFv as analyte
T3 construct: Amine-coupled to the SPR chip; also called mouse SA; rodent SA
Experimental: as §1

rat serum albumin [5] = molecular target: T4, rat serum albumin (rat, UniProt P02770 25-608); assay: SPR, SA coupled to the chip, scFv as analyte
T4 construct: Amine-coupled to the SPR chip; also called rat SA; rodent SA
Experimental: as §1

cynomolgus serum albumin [6] = molecular target: T1, cynomolgus serum albumin; assay: SPR (MASS-1), SA amine-coupled, scFv analyte, pH 5.5
Experimental: as §1

human serum albumin [7] = molecular target: T2, human serum albumin; assay: as above
Experimental: as §1

[8] = molecular target: T5, marmoset (purified) serum albumin (marmoset); assay: as above
T5 construct: Amine-coupled to the SPR chip; also called marmoset SA
Experimental: as §1

human serum albumin [9] = molecular target: T2, human serum albumin; assay: SPR; lower end tied to human SA at pH 5.5 by the KD values of Table 3
Experimental: as §1

mouse serum albumin [10] = molecular target: T3, mouse serum albumin; assay: SPR (MASS-1), SA amine-coupled, scFv analyte, pH 7.4
Experimental: as §1

rat serum albumin [11] = molecular target: T4, rat serum albumin; assay: as above
Experimental: as §1

mouse serum albumin [12] = molecular target: T3, mouse serum albumin; assay: SPR (MASS-1), SA amine-coupled, scFv analyte, pH 5.5
Experimental: as §1

rat serum albumin [13] = molecular target: T4, rat serum albumin; assay: as above
Experimental: as §1

human serum albumin [14] = molecular target: T2, human serum albumin; assay: SPR; species not given, human SA taken from Table 3

Binder | Kd (cynomolgus serum albumin [1]) [pM] | koff (cynomolgus serum albumin [1]) [s⁻¹] | kon (cynomolgus serum albumin [1]) [M⁻¹ s⁻¹] | Kd (human serum albumin [2]) [pM] | koff (human serum albumin [2]) [s⁻¹] | kon (human serum albumin [2]) [M⁻¹ s⁻¹] | Kd (cynomolgus serum albumin [6]) [pM] | koff (cynomolgus serum albumin [6]) [s⁻¹] | kon (cynomolgus serum albumin [6]) [M⁻¹ s⁻¹] | Kd (human serum albumin [7]) [pM] | koff (human serum albumin [7]) [s⁻¹] | kon (human serum albumin [7]) [M⁻¹ s⁻¹] | Kd [8] [pM] | koff [8] [s⁻¹] | kon [8] [M⁻¹ s⁻¹] | other results
19-01-H04-sc02 (scFv, V domains shown, also called clone 19-01-H04 STR graft; humanized scFv) VH: EVQLVESGGGLVQPGGSLRLSCAASGFSLSSNAMGWVRQAPGKGLEYIGIISVGGFTYYASWAKGRFTISRDNSKNTVYLQMNSLRAEDTATYFCARDRHGGDSSGAFYLWGQGTLVTVSS VL: DIQMTQSPSSLSASVGDRVTITCQSSESVYSNNQLSWYQQKPGQPPKLLIYDASDLASGVPSRFSGSGSGTDFTLTISSLQPEDFATYYCAGGFSSSSDTAFGGGTKLTVLG | 711 | 0.000302 | 424000 | 1070 | 0.000411 | 384000 | 387 | 0.000231 | 598000 | 684 | 0.000308 | 450000 | 674 | 0.0026 | 3.86e+06 | fold improvement of affinity of the STR graft over the CDR graft 19-01-H04-sc01 (cynomolgus serum albumin [3]): 20 to 300 fold; binding result (mouse serum albumin [4]): no binding; binding result (rat serum albumin [5]): no binding; fold improvement of affinity of the STR graft over the CDR graft 19-01-H04-sc01 (human serum albumin [9]): 20 to 300 fold
23-13-A01-sc02 (scFv, V domains shown, also called clone 23-13-A01 STR graft; humanized scFv) VH: EVQLVESGGGLVQPGGSLRLSCAASGFSFSSSYWICWVRQAPGKGLEWVGCVFTGDGTTYYASWAKGRFTISRDNSKNTVYLQMNSLRAEDTATYFCARPVSVYYYGMDLWGQGTLVTVSS VL: DVVMTQSPSSLSASVGDRVTITCQASQIISSRSAWYQQKPGQPPKLLIYQASKLASGVPSRFSGSGSGTDFTLTISSLQPEDFATYYCQCTYIDSNFGAFGGGTKLTVLG | 1300 | 0.000433 | 334000 | 600 | 0.000194 | 323000 | 750 | 0.000253 | 338000 | 373 | 0.000115 | 307000 | 3770 | 0.00128 | 338000 | Kd (mouse serum albumin [10]): 32200 pM; koff (mouse serum albumin [10]): 0.00469 s⁻¹; kon (mouse serum albumin [10]): 146000 M⁻¹ s⁻¹; Kd (rat serum albumin [11]): 231000 pM; koff (rat serum albumin [11]): 0.0245 s⁻¹; kon (rat serum albumin [11]): 106000 M⁻¹ s⁻¹; Kd (mouse serum albumin [12]): 4860 pM; koff (mouse serum albumin [12]): 0.000933 s⁻¹; kon (mouse serum albumin [12]): 192000 M⁻¹ s⁻¹; Kd (rat serum albumin [13]): 18700 pM; koff (rat serum albumin [13]): 0.00437 s⁻¹; kon (rat serum albumin [13]): 234000 M⁻¹ s⁻¹; fold improvement of affinity of the STR graft over the CDR graft 23-13-A01-sc01 (human serum albumin [14]): ~3 fold
